Measurements taken from US20250179192A1 (PHARMABCINE, published 2025).

Key:
VEGFR2 (KDR) on HUVECs = target: T1, VEGFR2 (KDR) on HUVECs (human, UniProt P35968 20-1356); test: FACS on HUVECs, 5 nM, anti-human IgG-PE secondary; secondary only 65.7
T1 construct: Endogenous receptor on HUVECs; also called KDR (VEGFR-2)
Protocol: To determine the binding activity of the fusion protein to HUVECs, FACS analysis was performed using the fusion protein and control antibodies (6A6, 6A6×DLL4, D4, Minod-Fc).
Specifically, HUVECs (LONZA, Cat No. C2519A) were cultured at 37° C. and 5% CO₂ using a plate coated with 2% gelatin and VascuLife medium complete kit (Lifeline Cell Technology, Cat No. #LCT-LL-0005). The cells were prepared at a concentration of 2×10⁷ cells/ml in FACS buffer (0.5% FBS, 0.05% sodium azide in PBS) and dispensed at 50 μl into each of FACS tubes. 100 μl of each antibody at a concentration of 5 nM was mixed in the FACS tube, followed by reaction at 4° C. for 30 minutes. After completion of reaction, 2 ml of FACS buffer was added to each tube, followed by centrifugation at 1500 rpm for 3 minutes. The supernatant was removed, the cells were resuspended, and 100 μl of anti-human IgG-PE antibody (1:200, Bethyl, #A80-248PE) was added, followed by reaction at 4° C. for 20 minutes. 2 ml of FACS buffer was added to each FACS tube, followed by centrifugation at 1500 rpm for 3 minutes. The separated supernatant was removed, the cells were resuspended in 200 μl of FACS buffer, and the binding activity was analyzed using FACS (Beckton Dickinson, Lyric).

hKDR-ECD = target: T2, hKDR-ECD (human, UniProt P35968 20-764); test: SPR Biacore T200, fusion protein captured on Protein A chip, antigen as analyte, 1:1 model
T2 construct: extracellular domain; Analyte in SPR; also called human KDR (VEGFR-2) extracellular domain
Protocol: (§1) The binding ability of the selected fusion protein to the antigen was measured using SPR (Biacore T200, Cytiva). The fusion protein was captured and analyzed using the antigen protein as an analyte. Using a Protein A chip, the fusion protein was immobilized on the surface according to the manufacturer's instructions. The fusion protein on the sensor chip was diluted with PBS-T running buffer to a concentration of 5 μg/ml and injected at a flow rate of 10 μl/min to reach about 200 RU. The antigen was diluted with PBS-T running buffer by concentration and injected at a flow rate of 30 μl/min for 4 minutes, and the dissociation time was set to 10 minutes. To remove the fusion protein bound every cycle, a regeneration solution (10 mM glycine-HCl, pH 1.5) was injected at a flow rate of 30 μl/min for 1 minute. The experimental results were calculated using the 1:1 binding model of BIA evaluation software version 1.0.

hDLL4 = target: T3, hDLL4 (human, UniProt Q9NR61 27-524, limits assumed); test: as above
T3 construct: Analyte in SPR; also called human delta-like ligand 4 (soluble antigen protein)
Protocol: as §1

[1] = target: T4, hDLL4 expressed on HEK293 cells (human, UniProt Q9NR61 27-685); test: FACS on hDLL4-overexpressing HEK293 cells (293-DLL4), 5 nM, anti-human IgG-PE secondary; secondary only 82.0
T4 construct: whole, on cells; also called DLL4-overexpressed HEK293 cells
Protocol: Specifically, the pcDNA-hDLL4 vector synthesized by GeneArt was transfected into HEK293 cells using Lipofectamin™ 2000 (Invitrogen #1168-019, USA), and neomycin (Gibco #10131, 50 mg/ml) was added for selection. Then, all grown cells were collected and cultured in a pool state. Then, 23 types of single colonies were obtained by culture using a limiting dilution method, and among the single colonies, one type of cell line that highly overexpressed hDLL4 was selected and tested. The selected cells were prepared to a concentration of 2×10⁷ cells/ml in FACS buffer (0.5% FBS, 0.05% sodium azide in PBS) and dispensed at 50 μl into each of FACS tubes. 5 nM fusion protein and control antibodies (6A6, 6A6×DLL4, D4, D4×DLL4, Minod-Fc) were added in 100 μl to each of the FACS tubes containing the cells, followed by reaction at 4° C. for 30 minutes. After completion of reaction, 2 ml of FACS buffer was added to each tube, followed by centrifugation at 1500 rpm for 3 minutes. The supernatant was removed, the cells were well resuspended, and then 100 μl of anti-human IgG-PE antibody (1:200, […], #A80-248PE) was added, followed by reaction at 4° C. for 20 minutes. After completion of reaction, 2 ml of FACS buffer was added to each FACS tube, followed by centrifugation at 1500 rpm for 3 minutes. The separated supernatant was removed, the cells were resuspended in 200 μl of FACS buffer, and the binding activity was analyzed using FACS (Beckton Dickinson, Lyric).

KDR1-3 domains = target: T5, KDR1-3 domains (UniProt P35968 20-327, limits assumed); test: Octet BLI, KDR1-3 domains on biosensor, scFv in solution
T5 construct: domain: KDR1-3 domains; Immobilized on the Octet biosensor; also called KDR D1-D3; KDR1-3 domain-Fc (as used for panning)
Protocol: The binding ability of the selected antibodies to the antigen was measured using Octet (Fortebio). To this end, KDR1-3 domains were immobilized on a biosensor, candidate antibodies expressed in scFv form were added and bound, and the dissociation rate constant was measured. The results of measurement of dissociation rate constant for the five selected optimized clones [Table 1] and amino acid sequences [Tables 2 and 3] are shown below.

T4 sequence (Q9NR61 27-685): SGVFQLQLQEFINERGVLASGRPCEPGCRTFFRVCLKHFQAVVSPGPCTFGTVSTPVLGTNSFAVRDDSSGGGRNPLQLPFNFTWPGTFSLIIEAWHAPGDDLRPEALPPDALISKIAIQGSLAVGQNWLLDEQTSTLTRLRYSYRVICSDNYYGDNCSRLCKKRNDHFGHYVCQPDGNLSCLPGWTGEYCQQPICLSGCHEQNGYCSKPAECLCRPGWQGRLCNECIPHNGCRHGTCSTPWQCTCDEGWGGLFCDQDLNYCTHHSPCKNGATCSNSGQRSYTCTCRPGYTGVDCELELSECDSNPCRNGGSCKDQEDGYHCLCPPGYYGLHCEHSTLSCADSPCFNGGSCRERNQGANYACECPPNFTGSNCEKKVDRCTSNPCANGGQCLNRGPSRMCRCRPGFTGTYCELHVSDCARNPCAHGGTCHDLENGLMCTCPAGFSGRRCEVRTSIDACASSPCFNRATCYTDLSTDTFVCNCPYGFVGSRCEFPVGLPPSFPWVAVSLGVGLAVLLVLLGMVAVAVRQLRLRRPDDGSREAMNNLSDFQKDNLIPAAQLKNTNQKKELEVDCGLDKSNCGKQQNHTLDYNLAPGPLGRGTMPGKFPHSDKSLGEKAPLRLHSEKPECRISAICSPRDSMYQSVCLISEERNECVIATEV
T1 sequence (P35968 20-1356 limits assumed): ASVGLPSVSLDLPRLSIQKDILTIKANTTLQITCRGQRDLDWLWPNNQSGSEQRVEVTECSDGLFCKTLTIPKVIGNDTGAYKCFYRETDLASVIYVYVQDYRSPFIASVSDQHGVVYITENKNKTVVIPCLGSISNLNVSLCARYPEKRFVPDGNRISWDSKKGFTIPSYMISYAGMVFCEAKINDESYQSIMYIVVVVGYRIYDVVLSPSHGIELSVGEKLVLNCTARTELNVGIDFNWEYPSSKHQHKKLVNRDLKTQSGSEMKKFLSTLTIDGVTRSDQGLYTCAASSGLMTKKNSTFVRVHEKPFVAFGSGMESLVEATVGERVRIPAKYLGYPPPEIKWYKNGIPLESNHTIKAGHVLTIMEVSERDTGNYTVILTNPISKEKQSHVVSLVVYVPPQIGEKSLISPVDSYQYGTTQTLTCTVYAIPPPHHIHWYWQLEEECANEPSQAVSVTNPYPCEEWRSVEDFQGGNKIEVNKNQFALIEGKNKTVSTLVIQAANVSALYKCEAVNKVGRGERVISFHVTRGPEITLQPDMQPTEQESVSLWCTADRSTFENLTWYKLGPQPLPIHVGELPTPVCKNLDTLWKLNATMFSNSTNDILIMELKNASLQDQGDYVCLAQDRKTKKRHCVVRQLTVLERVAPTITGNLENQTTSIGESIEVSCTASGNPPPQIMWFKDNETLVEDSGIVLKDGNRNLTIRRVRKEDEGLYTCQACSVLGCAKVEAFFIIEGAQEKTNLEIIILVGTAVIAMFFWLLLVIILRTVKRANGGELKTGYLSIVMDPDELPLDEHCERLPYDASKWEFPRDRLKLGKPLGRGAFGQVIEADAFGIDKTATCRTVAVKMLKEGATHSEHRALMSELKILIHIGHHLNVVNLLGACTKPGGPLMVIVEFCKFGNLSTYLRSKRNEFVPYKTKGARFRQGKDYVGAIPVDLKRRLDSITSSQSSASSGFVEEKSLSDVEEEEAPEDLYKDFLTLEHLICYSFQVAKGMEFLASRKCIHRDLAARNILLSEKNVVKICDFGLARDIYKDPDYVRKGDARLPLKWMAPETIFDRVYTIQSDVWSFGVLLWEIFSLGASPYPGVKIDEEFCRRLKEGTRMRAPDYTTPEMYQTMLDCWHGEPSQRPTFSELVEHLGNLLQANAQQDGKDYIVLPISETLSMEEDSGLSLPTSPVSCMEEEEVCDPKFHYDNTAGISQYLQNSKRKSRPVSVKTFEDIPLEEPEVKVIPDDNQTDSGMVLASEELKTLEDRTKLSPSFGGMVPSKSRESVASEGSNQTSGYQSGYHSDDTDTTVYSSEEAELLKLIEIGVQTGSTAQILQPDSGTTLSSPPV
T2 sequence (P35968 20-764): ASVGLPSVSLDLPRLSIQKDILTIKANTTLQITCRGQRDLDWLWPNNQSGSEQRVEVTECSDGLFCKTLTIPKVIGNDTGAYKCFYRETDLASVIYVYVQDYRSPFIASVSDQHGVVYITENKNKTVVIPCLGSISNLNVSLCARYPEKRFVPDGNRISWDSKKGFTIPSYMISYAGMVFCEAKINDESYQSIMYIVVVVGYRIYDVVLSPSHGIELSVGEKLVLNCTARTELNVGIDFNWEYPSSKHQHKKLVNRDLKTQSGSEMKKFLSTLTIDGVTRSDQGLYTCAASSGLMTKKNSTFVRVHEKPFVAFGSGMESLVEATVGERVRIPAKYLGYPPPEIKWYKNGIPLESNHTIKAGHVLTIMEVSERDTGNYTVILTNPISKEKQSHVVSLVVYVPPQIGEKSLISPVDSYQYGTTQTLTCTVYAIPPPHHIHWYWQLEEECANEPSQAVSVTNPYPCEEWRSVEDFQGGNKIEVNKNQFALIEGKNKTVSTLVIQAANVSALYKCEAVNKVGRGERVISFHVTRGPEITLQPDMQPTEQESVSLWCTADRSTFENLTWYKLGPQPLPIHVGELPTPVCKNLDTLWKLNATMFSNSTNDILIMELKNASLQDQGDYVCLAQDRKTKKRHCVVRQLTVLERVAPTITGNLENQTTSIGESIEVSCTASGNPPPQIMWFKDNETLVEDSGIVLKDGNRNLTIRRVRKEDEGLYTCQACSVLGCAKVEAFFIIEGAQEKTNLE
T5 sequence (P35968 20-327 limits assumed): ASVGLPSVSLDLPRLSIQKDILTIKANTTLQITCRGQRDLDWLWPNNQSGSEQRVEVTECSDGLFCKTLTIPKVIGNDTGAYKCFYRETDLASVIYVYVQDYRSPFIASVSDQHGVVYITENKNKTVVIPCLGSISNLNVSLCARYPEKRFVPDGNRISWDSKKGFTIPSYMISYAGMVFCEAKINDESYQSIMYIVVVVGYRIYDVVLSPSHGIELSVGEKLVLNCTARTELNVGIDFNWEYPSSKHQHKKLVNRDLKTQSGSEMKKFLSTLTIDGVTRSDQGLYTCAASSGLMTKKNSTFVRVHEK
T3 sequence (Q9NR61 27-524 limits assumed): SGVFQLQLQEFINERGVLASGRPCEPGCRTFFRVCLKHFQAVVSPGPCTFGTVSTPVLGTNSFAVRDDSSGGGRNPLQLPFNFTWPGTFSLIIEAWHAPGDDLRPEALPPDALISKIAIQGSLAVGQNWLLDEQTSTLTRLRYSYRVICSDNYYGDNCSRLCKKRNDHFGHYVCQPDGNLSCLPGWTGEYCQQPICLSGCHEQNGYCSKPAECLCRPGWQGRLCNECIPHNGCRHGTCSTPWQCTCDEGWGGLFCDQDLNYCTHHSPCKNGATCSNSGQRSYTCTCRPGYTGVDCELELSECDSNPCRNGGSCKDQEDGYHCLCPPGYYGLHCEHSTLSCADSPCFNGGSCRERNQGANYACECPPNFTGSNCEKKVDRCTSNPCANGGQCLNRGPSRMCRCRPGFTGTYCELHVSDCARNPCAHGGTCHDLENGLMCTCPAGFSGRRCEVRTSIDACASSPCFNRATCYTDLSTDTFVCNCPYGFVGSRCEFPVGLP

Binder	Geometric Mean : PE-A (VEGFR2 (KDR) on HUVECs)	Geometric Mean : PE-A [1]	koff (KDR1-3 domains) [s⁻¹]	further results
6A6×DLL4 (bispecific antibody, Comparative fusion protein with a 6A6 backbone; it was captured on a Protein A chip; also called 6A6xDLL4) VH: QMQLVQSGAEVKKPGASVKLSCKASGYTFSSYWMHWVRQAPGQRLEWMGEINPGNGHTNYNEKFKSRVTITVDKSASTAYMELSSLRSEDTAVYYCAKIWGPSLTSPFDYWGQGTLVTVSS Notch1-VL: not shown	380	968	–	Kd (hKDR-ECD): 4.46 nM; Pmax (hKDR-ECD): 502; koff (hKDR-ECD): 0.000837 s⁻¹; kon (hKDR-ECD): 188000 M⁻¹ s⁻¹; Pmax (hDLL4): 74.9; kon (hDLL4): 45800 M⁻¹ s⁻¹
D4 (IgG1 form) (antibody, V domains shown, also called optimized antibody D4) VH: EVQLVESGGGLVQPGGSLRLSCAASGYTFSSYWMSWVRQAPGKGLEWVSEINPGNGHTNYNEKFKSRFTISRDKSKNTLYLQMNSLRAEDTAVYYCARHWGPSLTSPFDYWGQGTLVTVSS VL: DIQMTQSPSSLSASVGDRVTITCRADNLGDVNVHWYQQKPGKAPKLLIYYDADRPSGVPSRFSGSNSGNDATLTISSLQPEDFATYYCQAPTNNDPYTFGQGTKVEIKR	456	71.1	–	–
6A6 (control antibody) (antibody, V domains shown) VH: QMQLVQSGAEVKKPGASVKLSCKASGYTFSSYWMHWVRQAPGQRLEWMGEINPGNGHTNYNEKFKSRVTITVDKSASTAYMELSSLRSEDTAVYYCAKIWGPSLTSPFDYWGQGTLVTVSS VL: SNFMLTQPPSVSVSPGKTARITCRGDNLGDVNVHWYQQRPGQAPVLVMYYDADRPSGIPERFSGSNSGNTATLTISGVEAGDEADYYCQVWDRTSEYVFGTGTKVTVLG	352	84.6	–	–
D4 (scFv form) (scFv, V domains shown, Tested as scFv) VH: EVQLVESGGGLVQPGGSLRLSCAASGYTFSSYWMSWVRQAPGKGLEWVSEINPGNGHTNYNEKFKSRFTISRDKSKNTLYLQMNSLRAEDTAVYYCARHWGPSLTSPFDYWGQGTLVTVSS VL: DIQMTQSPSSLSASVGDRVTITCRADNLGDVNVHWYQQKPGKAPKLLIYYDADRPSGVPSRFSGSNSGNDATLTISSLQPEDFATYYCQAPTNNDPYTFGQGTKVEIKR	–	–	0.000165	–
A5 (scFv form) (scFv, V domains shown, Tested as scFv) VH: EVQLVESGGGLVQPGGSLRLSCAASGYTFSSYWMSWVRQAPGKGLEWVSEINPGNGHTNYNEKFKSRFTISRDKSKNTLYLQMNSLRAEDTAVYYCARHWGPSLTSPFDYWGQGTLVTVSS VL: DIQMTQSPSSLSASVGDRVTITCRADNLGDVNVHWYQQKPGKAPKLLIYYDADRPSGVPSRFSGSNSGNDATLTISSLQPEDFATYYCQAPTTHLPYTFGQGTKVEIKR	–	–	0.000187	–
D3 (scFv form) (scFv, V domains shown, Tested as scFv) VH: EVQLVESGGGLVQPGGSLRLSCAASGYTFSSYWMSWVRQAPGKGLEWVSEINPGNGHTNYNEKFKSRFTISRDKSKNTLYLQMNSLRAEDTAVYYCARHWGPSLTSPFDYWGQGTLVTVSS VL: DIQMTQSPSSLSASVGDRVTITCRADNLGDVNVHWYQQKPGKAPKLLIYYDADRPSGVPSRFSGSNSGNDATLTISSLQPEDFATYYCQAPTKNVPYTFGQGTKVEIKR	–	–	0.00015	–
LH-E7 (scFv form) (scFv, V domains shown, Tested as scFv) VH: EVQLVESGGGLVQPGGSLRLSCAASGYTFSSYWMSWVRQAPGKGLEWVSEINPGNGHTNYNEKFKSRFTISRDKSKNTLYLQMNSLRAEDTAVYYCARHWGPSLTSPFDYWGQGTLVTVSS VL: DIQMTQSPSSLSASVGDRVTITCRADNLGDVNVHWYQQKPGKAPKLLIYYDADRPSGVPSRFSGSNSGNDATLTISSLQPEDFATYYCQAPTRIAPYTFGQGTKVEIKR	–	–	0.000111	–
LHL-G1 (scFv form) (scFv, V domains shown, Tested as scFv) VH: EVQLVESGGGLVQPGGSLRLSCAASGYTFSSYWMSWVRQAPGKGLEWVSEINPGNGHTNYNEKFKSRFTISRDKSKNTLYLQMNSLRAEDTAVYYCARSYRPSLTSPFDFWGQGTLVTVSS VL: DIQMTQSPSSLSASVGDRVTITCRADNLGDVNVHWYQQKPGKAPKLLIYYDADRPSGVPSRFSGSNSGNDATLTISSLQPEDFATYYCQAPTTNEPYTFGQGTKVEIKR	–	–	0.000239	–
